{"source": "patent US20210155676A1", "about": "(Gilead, published 2021)", "key": {"Human FcRn [1]": {"molecular_target": "T1, Human FcRn (human, UniProt P55899 24-297; P61769 21-119)", "T1 construct": "also called neonatal Fc receptor", "T1 sequence (P55899 24-297 limits assumed, chain 1 of 2)": "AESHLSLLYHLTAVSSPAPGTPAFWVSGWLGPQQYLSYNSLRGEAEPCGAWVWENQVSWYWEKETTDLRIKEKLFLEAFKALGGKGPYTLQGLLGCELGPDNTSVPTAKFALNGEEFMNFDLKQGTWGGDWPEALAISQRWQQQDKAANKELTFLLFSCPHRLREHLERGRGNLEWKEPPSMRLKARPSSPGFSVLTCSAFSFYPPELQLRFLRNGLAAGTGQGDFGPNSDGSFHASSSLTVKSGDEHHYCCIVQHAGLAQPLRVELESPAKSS", "T1 sequence (P61769 21-119 limits assumed, chain 2 of 2)": "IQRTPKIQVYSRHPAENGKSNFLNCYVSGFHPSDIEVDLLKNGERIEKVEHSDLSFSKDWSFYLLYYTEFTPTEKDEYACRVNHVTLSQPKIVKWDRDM", "assay": "ELISA, ratio of EC50 at pH 7.0 to EC50 at pH 6.0", "protocol": "(§1) The binding of antibodies to FcRn of various species at different pHs was determined. A 96-well Maxisorp plate was coated with 100 ul of 5 μg/ml FcRn. The plate was incubated overnight at 4° C., and then blocked with 4% skim milk for 2 hr at room temperature after washing 3 times with 0.05% Tween 20 washing buffer. The plate was incubated with 3 fold serial dilution of primary antibody for 1 hr at room temperature. The plate was then washed 3 times and 100 of Fab-anti-human Fab-HRP or Goat anti-human IgG-HRP secondary antibody diluted in 4% skimmed milk was added. Plates were then incubated 50 min at room temperature, washed three times, and 100 μL fresh TMB substrate was added. Plates were developed for 3 minutes on bench with gentle shaking. Plate was quenched with 100 μL 1M HCl, shaken briefly, read at A450 on a spectramax m5 plate reader."}, "Human FcRn [2]": {"molecular_target": "T1, Human FcRn", "assay": "ELISA, pH 7.0/6.0 ratio relative to PGT121", "protocol": "as §1"}, "Human FcRn [3]": {"molecular_target": "T1, Human FcRn", "assay": "ELISA, FcRn coated on plate, pH 6.0", "protocol": "as §1"}, "Human FcRn [4]": {"molecular_target": "T1, Human FcRn", "assay": "ELISA, FcRn coated on plate, pH 7.0", "protocol": "as §1"}, "[5]": {"molecular_target": "HIV-1 Env of subtype B isolate MGRM-B-110 (HIV-1)", "assay": "cell-based or functional assay"}, "[6]": {"molecular_target": "HIV-1 Env of subtype B isolate MGRM-B-105 (HIV-1)", "assay": "cell-based or functional assay"}, "[7]": {"molecular_target": "HIV-1 Env of subtype B isolate MGRM-B-106 (HIV-1)", "assay": "cell-based or functional assay"}, "[8]": {"molecular_target": "HIV-1 Env of subtype B isolate MGRM-B-112 (HIV-1)", "assay": "cell-based or functional assay"}, "[9]": {"molecular_target": "HIV-1 Env of subtype B isolate MGRM-B-132 (HIV-1)", "assay": "cell-based or functional assay"}, "[10]": {"molecular_target": "HIV-1 Env of subtype B isolate MGRM-B-111 (HIV-1)", "assay": "cell-based or functional assay"}, "[11]": {"molecular_target": "HIV-1 Env of subtype B isolate MGRM-B-118 (HIV-1)", "assay": "cell-based or functional assay"}, "[12]": {"molecular_target": "HIV-1 Env of subtype B isolate MGRM-B-115 (HIV-1)", "assay": "cell-based or functional assay"}, "[13]": {"molecular_target": "HIV-1 Env of subtype B isolate MGRM-B-136 (HIV-1)", "assay": "cell-based or functional assay"}, "[14]": {"molecular_target": "HIV-1 Env of subtype B virus 15-124975 (HIV-1)", "assay": "cell-based or functional assay"}, "[15]": {"molecular_target": "HIV-1 Env of subtype B virus 15-124904 (HIV-1)", "assay": "cell-based or functional assay"}, "[16]": {"molecular_target": "HIV-1 Env of subtype B virus 15-124986 (HIV-1)", "assay": "cell-based or functional assay"}, "[17]": {"molecular_target": "HIV-1 Env of subtype B virus 15-124914 (HIV-1)", "assay": "cell-based or functional assay"}, "[18]": {"molecular_target": "HIV-1 Env of subtype B virus 15-101757 (HIV-1)", "assay": "cell-based or functional assay"}, "[19]": {"molecular_target": "HIV-1 Env of subtype B virus 15-101608 (HIV-1)", "assay": "cell-based or functional assay"}, "[20]": {"molecular_target": "HIV-1 Env of subtype B virus 15-124963 (HIV-1)", "assay": "cell-based or functional assay"}, "[21]": {"molecular_target": "HIV-1 Env of subtype B virus 15-124970 (HIV-1)", "assay": "cell-based or functional assay"}, "[22]": {"molecular_target": "HIV-1 Env of subtype B virus 15-124934 (HIV-1)", "assay": "cell-based or functional assay"}, "[23]": {"molecular_target": "HIV-1 Env of subtype B virus 15-102514 (HIV-1)", "assay": "cell-based or functional assay"}, "[24]": {"molecular_target": "HIV-1 Env of subtype B virus 15-124987 (HIV-1)", "assay": "cell-based or functional assay"}, "[25]": {"molecular_target": "HIV-1 Env of subtype B virus 15-124906 (HIV-1)", "assay": "cell-based or functional assay"}, "[26]": {"molecular_target": "HIV-1 Env of subtype B virus 15-124964 (HIV-1)", "assay": "cell-based or functional assay"}, "[27]": {"molecular_target": "HIV-1 Env of subtype B virus 15-124962 (HIV-1)", "assay": "cell-based or functional assay"}, "[28]": {"molecular_target": "HIV-1 Env of subtype B virus 15-124950 (HIV-1)", "assay": "cell-based or functional assay"}, "[29]": {"molecular_target": "HIV-1 Env of subtype B virus 15-124918 (HIV-1)", "assay": "cell-based or functional assay"}, "[30]": {"molecular_target": "human FcγRIIIA on primary NK effector cells (human, UniProt P08637 17-254)", "sequence (P08637 17-254)": "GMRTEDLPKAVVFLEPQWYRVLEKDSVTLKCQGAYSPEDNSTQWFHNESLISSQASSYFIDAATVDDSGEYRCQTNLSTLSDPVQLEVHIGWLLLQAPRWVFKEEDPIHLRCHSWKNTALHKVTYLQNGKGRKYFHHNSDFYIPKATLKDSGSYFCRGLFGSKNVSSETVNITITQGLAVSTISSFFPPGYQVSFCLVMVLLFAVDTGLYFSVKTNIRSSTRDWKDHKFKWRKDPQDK", "assay": "cell-based or functional assay"}}}
{"binder": "PGT121.60 hIgG1/hLambda (antibody) heavy: QMQLQESGPGLVKPSETLSLTCSVSGASISDSYWSWIRRSPGKGLEWIGYVHKSGDTNYNPSLKSRVHLSLDTSKNQVSLSLTGVTAADSGKYYCARTLHGRRIYGIVAFNEWFTYFYMDVWGTGTQVTVSSASTKGPSVFPLAPSSKSTSGGTAALGCLVKDYFPEPVTVSWNSGALTSGVHTFPAVLQSSGLYSLSSVVTVPSSSLGTQTYICNVNHKPSNTKVDKKVEPKSCDKTHTCPPCPAPELLAGPDVFLFPPKPKDTLMISRTPEVTCVVVDVSHEDPEVKFNWYVDGVEVHNAKTKPREEQYNSTYRVVSVLTVLHQDWLNGKEYKCKVSNKALPLPEEKTISKAKGQPREPQVYTLPPSREEMTKNQVSLTCLVKGFYPSDIAVEWESNGQPENNYKTTPPVLDSDGSFFLYSKLTVDKSRWQQGNVFSCSVLHEALHSHYTQKSLSLSPGK light: not shown", "values": [{"measurement": "Ratio pH 7.0/6.0", "setting": "Human FcRn [1]", "value": 355}, {"measurement": "Fold vs PGT121", "setting": "Human FcRn [2]", "value": 11, "unit": "fold"}, {"measurement": "EC50", "setting": "Human FcRn [3]", "value": 0.22, "unit": "nM"}, {"measurement": "EC50", "setting": "Human FcRn [4]", "value": 78, "unit": "nM"}, {"measurement": "PGT121 IC50/PGT121.60 IC50", "setting": "[5]", "value": 3.3, "unit": "fold"}, {"measurement": "neutralization IC50", "setting": "[5]", "value": 0.0113, "unit": "µg/mL"}, {"measurement": "PGT121 IC50/PGT121.60 IC50", "setting": "[6]", "value": 2.9, "unit": "fold"}, {"measurement": "neutralization IC50", "setting": "[6]", "value": 7.6, "unit": "ng/mL"}, {"measurement": "PGT121 IC50/PGT121.60 IC50", "setting": "[7]", "value": 4.1, "unit": "fold"}, {"measurement": "neutralization IC50", "setting": "[7]", "value": 1, "unit": "ng/mL"}, {"measurement": "PGT121 IC50/PGT121.60 IC50", "setting": "[8]", "value": 2.5, "unit": "fold"}, {"measurement": "neutralization IC50", "setting": "[8]", "value": 5.8, "unit": "ng/mL"}, {"measurement": "PGT121 IC50/PGT121.60 IC50", "setting": "[9]", "value": 1.2, "unit": "fold"}, {"measurement": "neutralization IC50", "setting": "[9]", "value": 7.7, "unit": "ng/mL"}, {"measurement": "PGT121 IC50/PGT121.60 IC50", "setting": "[10]", "value": 2.2, "unit": "fold"}, {"measurement": "neutralization IC50", "setting": "[10]", "value": 0.955, "unit": "µg/mL"}, {"measurement": "PGT121 IC50/PGT121.60 IC50", "setting": "[11]", "value": 0.7, "unit": "fold"}, {"measurement": "neutralization IC50", "setting": "[11]", "value": 3.31, "unit": "µg/mL"}, {"measurement": "PGT121 IC50/PGT121.60 IC50", "setting": "[12]", "value": 1.7, "unit": "fold"}, {"measurement": "neutralization IC50", "setting": "[12]", "value": 0.141, "unit": "µg/mL"}, {"measurement": "PGT121 IC50/PGT121.60 IC50", "setting": "[13]", "value": 1.2, "unit": "fold"}, {"measurement": "neutralization IC50", "setting": "[13]", "value": 7.1, "unit": "ng/mL"}, {"measurement": "PGT121 IC50/PGT121.60 IC50", "setting": "[14]", "value": 5.5, "unit": "fold"}, {"measurement": "neutralization IC50", "setting": "[14]", "value": 0.105, "unit": "µg/mL"}, {"measurement": "PGT121 IC50/PGT121.60 IC50", "setting": "[15]", "value": 3.1, "unit": "fold"}, {"measurement": "neutralization IC50", "setting": "[15]", "value": 0.0121, "unit": "µg/mL"}, {"measurement": "PGT121 IC50/PGT121.60 IC50", "setting": "[16]", "value": 3.2, "unit": "fold"}, {"measurement": "neutralization IC50", "setting": "[16]", "value": 1.5, "unit": "ng/mL"}, {"measurement": "PGT121 IC50/PGT121.60 IC50", "setting": "[17]", "value": 3, "unit": "fold"}, {"measurement": "neutralization IC50", "setting": "[17]", "value": 2, "unit": "ng/mL"}, {"measurement": "PGT121 IC50/PGT121.60 IC50", "setting": "[18]", "value": 4.7, "unit": "fold"}, {"measurement": "neutralization IC50", "setting": "[18]", "value": 0.0132, "unit": "µg/mL"}, {"measurement": "PGT121 IC50/PGT121.60 IC50", "setting": "[19]", "value": 3.6, "unit": "fold"}, {"measurement": "neutralization IC50", "setting": "[19]", "value": 1.84, "unit": "µg/mL"}, {"measurement": "PGT121 IC50/PGT121.60 IC50", "setting": "[20]", "value": 8.2, "unit": "fold"}, {"measurement": "neutralization IC50", "setting": "[20]", "value": 2.05, "unit": "µg/mL"}, {"measurement": "PGT121 IC50/PGT121.60 IC50", "setting": "[21]", "value": 3.9, "unit": "fold"}, {"measurement": "neutralization IC50", "setting": "[21]", "value": 0.0285, "unit": "µg/mL"}, {"measurement": "PGT121 IC50/PGT121.60 IC50", "setting": "[22]", "value": 12.1, "unit": "fold"}, {"measurement": "neutralization IC50", "setting": "[22]", "value": 0.797, "unit": "µg/mL"}, {"measurement": "PGT121 IC50/PGT121.60 IC50", "setting": "[23]", "value": 3.5, "unit": "fold"}, {"measurement": "neutralization IC50", "setting": "[23]", "value": 0.0128, "unit": "µg/mL"}, {"measurement": "PGT121 IC50/PGT121.60 IC50", "setting": "[24]", "value": 3.1, "unit": "fold"}, {"measurement": "neutralization IC50", "setting": "[24]", "value": 0.0163, "unit": "µg/mL"}, {"measurement": "PGT121 IC50/PGT121.60 IC50", "setting": "[25]", "value": 5.3, "unit": "fold"}, {"measurement": "neutralization IC50", "setting": "[25]", "value": 0.0103, "unit": "µg/mL"}, {"measurement": "PGT121 IC50/PGT121.60 IC50", "setting": "[26]", "value": 3.5, "unit": "fold"}, {"measurement": "neutralization IC50", "setting": "[26]", "value": 2.6, "unit": "ng/mL"}, {"measurement": "PGT121 IC50/PGT121.60 IC50", "setting": "[27]", "value": 3.4, "unit": "fold"}, {"measurement": "neutralization IC50", "setting": "[27]", "value": 0.0277, "unit": "µg/mL"}, {"measurement": "PGT121 IC50/PGT121.60 IC50", "setting": "[28]", "value": 3, "unit": "fold"}, {"measurement": "neutralization IC50", "setting": "[28]", "value": 0.0995, "unit": "µg/mL"}, {"measurement": "PGT121 IC50/PGT121.60 IC50", "setting": "[29]", "value": 3, "unit": "fold"}, {"measurement": "neutralization IC50", "setting": "[29]", "value": 1.8, "unit": "ng/mL"}, {"measurement": "ADCC AUC, NK donor A4813, primary CD4+ T cells infected with HT593", "setting": "[30]", "value": 185}, {"measurement": "ADCC AUC, NK donor A4813, primary CD4+ T cells infected with US657", "setting": "[30]", "value": 220}, {"measurement": "ADCC EC50, NK donor A4813, primary CD4+ T cells infected with HT593", "setting": "[30]", "value": 0.7, "unit": "nM"}, {"measurement": "ADCC EC50, NK donor A4813, primary CD4+ T cells infected with US657", "setting": "[30]", "value": 1.2, "unit": "nM"}, {"measurement": "ADCC Emax, NK donor A4813, primary CD4+ T cells infected with HT593", "setting": "[30]", "value": 67, "unit": "%"}, {"measurement": "ADCC Emax, NK donor A4813, primary CD4+ T cells infected with US657", "setting": "[30]", "value": 72, "unit": "%"}]}
